Where two headings read alike, the source gives them in different places.
B1: A-C mismatch template:primer (dsDNA)
DNA 1: AATACATAAACGCTCCAGGCAAT
DNA 2: GCCTGGAGCGC
modifications: primer 3'-terminal dideoxycytidine
B2: T-C mismatch DNA template:RNA primer (crystal) (DNA:RNA)
DNA: ATAGTCGCTCCAGGC
RNA: GCCUGGAGCGC
modifications: RNA primer with 3'-terminal dideoxycytidine
B3: C-C mismatch template:primer (dsDNA)
DNA 1: AATACATAACCGCTCCAGGCAAT
DNA 2: GCCTGGAGCGC
modifications: primer 3'-terminal dideoxycytidine
B4: T-C mismatch template:primer (dsDNA)
DNA 1: AATACATAATCGCTCCAGGCAAT
DNA 2: GCCTGGAGCGC
modifications: primer 3'-terminal dideoxycytidine
B5: G-C template:primer (matched) (dsDNA)
DNA 1: AATACATAAGCGCTCCAGGCAAT
DNA 2: GCCTGGAGCGC
modifications: primer 3'-terminal dideoxycytidine

Legend:
[1] = target: T1, DNA polymerase alpha catalytic domain (PolαCD) (human, UniProt P09884 338-1250); experiment: BLI
T1 sequence (P09884 338-1250): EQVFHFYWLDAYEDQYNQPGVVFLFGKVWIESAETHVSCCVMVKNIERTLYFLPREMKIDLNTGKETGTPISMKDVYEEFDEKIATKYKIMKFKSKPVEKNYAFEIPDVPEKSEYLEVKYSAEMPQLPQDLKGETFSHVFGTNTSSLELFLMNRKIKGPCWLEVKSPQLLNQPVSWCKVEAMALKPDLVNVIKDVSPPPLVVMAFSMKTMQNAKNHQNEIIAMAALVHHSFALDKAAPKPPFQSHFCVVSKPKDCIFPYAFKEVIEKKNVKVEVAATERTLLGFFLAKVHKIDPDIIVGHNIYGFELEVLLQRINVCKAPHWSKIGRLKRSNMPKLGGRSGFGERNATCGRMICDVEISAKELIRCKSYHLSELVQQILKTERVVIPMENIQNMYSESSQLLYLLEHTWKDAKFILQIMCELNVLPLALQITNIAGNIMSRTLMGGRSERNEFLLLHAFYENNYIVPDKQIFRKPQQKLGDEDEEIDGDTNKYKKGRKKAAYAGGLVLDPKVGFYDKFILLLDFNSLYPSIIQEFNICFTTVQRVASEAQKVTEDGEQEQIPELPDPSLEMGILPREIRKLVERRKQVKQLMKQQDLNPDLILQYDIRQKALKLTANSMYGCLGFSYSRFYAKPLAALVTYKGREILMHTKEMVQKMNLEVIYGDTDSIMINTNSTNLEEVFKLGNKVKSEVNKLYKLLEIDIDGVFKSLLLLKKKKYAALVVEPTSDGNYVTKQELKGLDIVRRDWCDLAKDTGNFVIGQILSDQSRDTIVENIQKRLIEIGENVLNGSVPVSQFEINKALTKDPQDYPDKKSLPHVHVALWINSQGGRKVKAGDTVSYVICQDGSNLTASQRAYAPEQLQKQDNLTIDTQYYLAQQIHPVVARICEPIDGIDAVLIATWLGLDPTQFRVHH

[2] = target: T1, DNA polymerase alpha catalytic domain …; experiment: BLI; remark: listed apart in the source
[3] = target: T1, DNA polymerase alpha catalytic domain …; experiment: crystal structure
[4] = target: T1, DNA polymerase alpha catalytic domain …; experiment: BLI; remark: listed apart in the source
[5] = target: T1, DNA polymerase alpha catalytic domain …; experiment: BLI; remark: listed apart in the source
[6] = target: T1, DNA polymerase alpha catalytic domain …; experiment: BLI; remark: listed apart in the source

Row | Binder | Kd [1] [nM] | Kd [2] [nM] | binding result [3] | Kd [4] [nM] | Kd [5] [nM] | Kd [6] [nM]
1 | B1 | 12.6 ± 1.3 | 987 ± 18 |  |  |  | 
2 | B2 |  |  | binds |  |  | 
3 | B3 | 11.7 ± 0.42 | 646 ± 11 |  |  |  | 
4 | B4 | 14.2 ± 0.13 | 462 ± 43 |  |  |  | 
5 | B5 | 40.8 ± 1.6 | 1400 ± 130 |  | 168 ± 17 | 1200 | 30.2 ± 1.3
